The RNAGym collection of RNA variant scans (doi:10.1073/pnas.2313332121)

B1: TPR t1 (parent)
chain: GACCAAUCUGCCCUCAGAGCUCGAGAACAUCUUCGGAUGCAGAGGAGGCAGGCUUCGGUGGCGCGAUAGCGCCAACGUCCUCAACCUCCAAUGCAUCCCACCACAUGAUGAUGCCUGAAGAGCCUUGGUUUUUUG

Variants of: B1
Experiment: polymerase ribozyme fitness, log enrichment relative to wild type (log ratio); higher = more active; in vitro selection for triplet polymerase activity
Summary of the method: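 Libraries of mutants in each subunit of a heterodimeric triplet polymerase ribozyme were generated by PCR and transcribed. In triplicate, each went through one in vitro selection round: annealing with biotinylated primer, partner subunit and triplets; frozen incubation at −7 °C; gel excision of extended constructs; streptavidin-bead capture; RT-PCR. Fitness, taken from Illumina sequencing of input and output libraries, is the logarithm of a genotype's enrichment over wild-type enrichment, averaged across replicates with inverse-variance weights. The logarithm is base 2, and genotypes needed ≥10 input reads and ≥1 read per output to be kept.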

Row | Variant | polymerase ribozyme fitness (log ratio)
1 | C53U C72U | -0.842
2 | C53U C72A | 0.143
3 | C53U C72G | -0.46
4 | U54A U55A A74G | -0.235
5 | U54C G77C C104U | -0.638
6 | U54C G61U U116A U131C | -2.5
7 | C53U U132C | -0.221
8 | C53U G135U | -1.02
9 | C53U G69C | -1.01
10 | C53U C94A | -1.44
11 | C53U C72A U81G G120A U129A | -1.13
12 | C53U C89A | -1.29
13 | C53U U131G | -0.948
14 | U54A C62U | -1.02
15 | U54A C62A | -0.751
16 | U54C G122A | -0.596
17 | C53U C72U A111U | -3.11
18 | C53U G117U | -2.22
19 | C53U G117C | -3.1
20 | U54A C62A A95C | -2.03
21 | U54A U59A G60C U106A C124A G128U | -0.601
22 | U54C G61C A75U | 0.0964
23 | U54C G57C C72G U112C | 0.604
24 | C53U U87A | -0.467

Row | Variant | polymerase ribozyme fitness (log ratio)
25 | U54C C97A | -5.83
26 | U54A C72A C73U A91C C115U | -4.35
27 | U54A C73A U78C C102A | -1.97
28 | U54G A68C C101A G113U | -7.46
29 | C53U C64U A83G | -0.811
30 | C53U C72A C123A G128U | -0.319
31 | U54A C102U | -2.1
32 | U54A C56A C124A | 1.58
33 | C53U C72G C79A | -1.72
34 | C53U G63A U81A | -2.54
35 | C53U C73U C79A G127C | -1.71
36 | U54C C88U C94A C101U | -0.155
37 | U54A C73A C88A | -0.61
38 | C53U G63A G113U | -5.15
39 | C53U G93A A103C | -5.92
40 | U54C G71U C97G C123U | -4.02
41 | U54C G120A | -0.357
42 | U54C C64U G77U G113C U132A G135U | -3.36
43 | C53U G93C | -1.07
44 | C53U G93U | -0.832
45 | U54A C82U | -0.0762
46 | U54A C62U C64U | -0.217
47 | C53U C72A A91C C94G C101A | -4.4
48 | C53U G60A A84C | -0.485

Row | Variant | polymerase ribozyme fitness (log ratio)
49 | C53U G63A C102A A103U | -7.55
50 | U54A G63A C73G | -6.66
51 | U54A C64U C72U | 0.146
52 | U54A C72A C73U A91C C115U U129A | -4.31
53 | C53U G63A U96A | -2.3
54 | U54A U96A G113C C123U U126A | -4.27
55 | U54C U109G | -5.15
56 | C53U C101A | -0.961
57 | C53U U96G G113C | -2.77
58 | C53U G71A C124A G128C | -1.39
59 | C53U G61C U106G C124G G135A | -0.0167
60 | C53U U78C C89U A95G C101G C114U U125A G128A | -5.82
61 | C53U U81C U96A | -2.89
62 | U54A G110A | -1.52
63 | C53U G57U | 0.599
64 | U54C G57U C115G | -1.53
65 | U54G A121G | 1.62
66 | C53U U55G C104U | 0.237
67 | U54A U106A | -1.04
68 | U54A G71U | -0.0584
69 | U54G A105G U112A C123G C124A U132C | -2.09
70 | U54A C56A | 0.502
71 | U54A C70U C73A C124U U129G | -0.505
72 | U54A G69A U78G C82G A121U U130A | -1.06

Row | Variant | polymerase ribozyme fitness (log ratio)
73 | C53U C89U G135C | -0.361
74 | C53U C89U C104A C115U C124A U133G | -4.17
75 | C53U U55G G63U U81C G93U U116C G135C | -5.21
76 | C53U G60A A83C U87C | -0.3
77 | U54A C72G C104U G113A | -3.29
78 | C53U C73G C89U U112G | -1
79 | U54A U87A | -2.57
80 | C53U C73U A90G | 0.151
81 | C53U C88U | 0.129
82 | U54A A105U | -1.84
83 | U54A C104U C114G C115U | -5.34
84 | C53U U126G | -1.77
85 | C53U C72G C104A A121C | -0.137
86 | C53U U109A | -5.04
87 | U54A G60A U78C C89U G120A U126A | -1.78
88 | U54A G71C A83C G120U | -0.105
89 | C53U G120U | -0.193
90 | C53U G120A | 0.773
91 | C53U C76U G128A | -2.11
92 | U54C G69A U112C | -0.483
93 | C53U C123A | 1.2
94 | C53U C72A A91G | -1.6
95 | U54G A108U | -5.9
96 | U54A U112A G117C | -3.84

Row | Variant | polymerase ribozyme fitness (log ratio)
97 | U54C G58A U92C | -0.614
98 | U54A G71U U87G C123A | -0.353
99 | U54A G63U | -0.939
100 | U54C U87A | 0.213
101 | U54A C86U | 0.24
102 | U54A G120A | 0.0705
103 | C53U C80U U81C | -4.05
104 | C53U C101G U130A | -2.65
105 | U54A C62U U96G | -0.523
106 | C53U G63U | -1.11
107 | U54A U81C A90G C123U | 0.715
108 | U54A A83U G110U | -3.19
109 | C53U C72U U87G G117C | -3.81
110 | U54C G61A U81A U96A | -1.36
111 | C53U C88A G110C | -4.54
112 | C53U C97G | -4.59
113 | C53U G113A | -1.57
114 | C53U G57U C101A U109G | -6.08
115 | C53U C79G G113C | -3.6
116 | C53U G57C A83C | -0.254
117 | U54A G63U C99U G117U | -5.72
118 | U54A U87G C123A | 0.724
119 | U54C A84G U116G | -2.35
120 | U54A C70G C115U | -5.02

Row | Variant | polymerase ribozyme fitness (log ratio)
121 | U54C G77U | -0.352
122 | U54C C73A A121U | 2.33
123 | U54A C70U C88G C89U C115A | -0.838
124 | C53U G58U C70U | -0.221
125 | U54A G61A | 0.266
126 | U54C A75G C79A | -0.763
127 | U54A C70G A118G U133A G135U | -2.84
128 | C53U C70U A74G G113C U133A | -2.94
129 | C53U G71U U92A A119U C124U | -2.62
130 | C53U C115U G117C | -3.76
131 | U54C U133A | -0.0319
132 | U54G | -0.214
133 | U54A | 0.0154
134 | U54C | 0.321
135 | U54A G110A C115G | -4.1
136 | U54A A95C | -0.767
137 | C53U G58C U81G C88A C89U G120C | -4.46
138 | C53U C76U | -0.497
139 | U54A C102G U112G | -6.74
140 | U54A G58C C64U G110C | -5.03
141 | C53U G61A A74U G127C | -1.43
142 | U54A G71U C79U G93A C94U | -2.4
143 | C53U C114U | -1.76
144 | U54A C86U C97U C101G | -2

Row | Variant | polymerase ribozyme fitness (log ratio)
145 | U54A U59A C80A C82G C123U | -2.88
146 | C53U G60U C101G | -1.27
147 | U54A C72G | -0.955
148 | U54C G110A | -1.29
149 | U54C C70A C82A G128U | -5.17
150 | U54A G61A U106A C124U U129G | -0.685
151 | U54A A74U C124G | 0.443
152 | U54A C88G G135U | -1.43
153 | U54C C56A C89U | -0.439
154 | U54A G71C C89U U129A | -2.49
155 | C53U C73G C85U C102A | -5.04
156 | U54A C62A G63A C88A | -3.95
157 | U54C U96A | -0.835
158 | C53U U54C A90G G122A | -0.961
159 | U54A C73A C79A G107C A119G | -6.96
160 | U54A C94U U109G | -5
161 | U54C C56G U131G | -1.34
162 | C53U G71U C89U C115U | -3.54
163 | U54C U59C A119G | 1.11
164 | U54A G61U U96C C99A | -5.82
165 | U54A C98U U129G U133G | -3.2
166 | U54C C82U A83C C115G G117A U129C | -4.19
167 | U54C U59C C94U A111G G128A U131A | -3.64
